Results from the DeepSol protein solubility set.

Test: soluble on expression in E. coli; label from the status in PepcDB or PDB records

| Sequence | soluble on expression in E. coli |
| --- | --- |
| MGSDKIHHHHHHMGEAIEVAEGALWMRLPLPMKLDHVNVYAFDEGDSWTVVDTGMSSNKTRRIWEQLMAGPLGGKPVRRVVVTHHHPDHIGNAGWFQSEHGAELVTTRTAWLFARMLTLDVQESWPEETLAYYRSAGMDPEVYDTRKADRPFNFADTVYPMPLGFTRVQQGDVFRMGGRDWDIHMGNGHAPEHATLWSRDDNLVLTGDQVLSSISPNIGVYATEPEADPLAEWLEACERLAALARPEHLALGGHKLPFTRLPLRMRQLIDNHHGALERLMEFLETPKSAAECFPTLFKRTIGPGEYGLALVEAVAHVNHLYRTGQVTRTRRSDEAWVYQRR | not soluble |
| MGSDKIHHHHHHMGEYLTLPMEVYSGILVTHEGVFHGDLIVEEMAFEESRVEKDDFVISPTFFNAHTHLGDAALREAPRLDLVSIVGPGGYKHRMLSQIDSKTLRQEVELEVRISRDAGTSHFLDFREGGKAGLEIVKGIDGVLPLARPTSVEEAEEVEAFGFAYSSARDHDLKLMEEVREIARRRKMLFAIHAGEKDCADVDAALALEPDFVVHMNSCPEKIREFVEAEIPIVSCIRSNAFFGLLNKKSYELLSEYEKWMLGTDNAMISTASMLDEMHFAAYLIGKEKAILRAATASYAVFGFRHGYVVFNRNCSFRRTSDPLLTLVRRAGVKDIERVLIL | not soluble |
| MGSDKIHHHHHHMGGKWMRWMAPAPPASNVPKCSCHRLLGKEPPNDSKDCRPGSLTGRALFSDVPRGMAKDVFQVHCVSATGRRVINKKIKRAKLLAFLETLPRCVVGMEACGSAHHWGGELRKLGHDVRLMPAAYVKLYVKRGKTDAADAEAICEAVRRQSMRFVEIESEDQQAVLAIHSARDLVVRQRTQVVNMIRSILREFGHILPTGIEAVSKFAREHGTEDQLDMPEIADGILGVMCHQLNGLNARVDGLTKLIEQHAWLDADARRLMRMPGIGPITASAIVATIGDAKQFETGRDLATWLGLTPLNKSSGGKERLGRIIKKGDRYIRKLLIIGMTSRSLMAKNKPEKADTWTAKLPDEQPFRLATVAMANKSARIIWALLTKREEYRQPIV | not soluble |
| MGSDKIHHHHHHMGHQEFMSQEEVDALLKGVTGETDTVDEQRDLSSVRPYNIATQERIVRGRMPGLEIINDRFARLLRIGIFNFMRRTAEISVSQVKVQKYSEFTRNLPIPTNLNLVHVKPLRGTSLFVFDPNLVFFVVDNLFGGDGRFHTRVEGRDFTATEQRIIGKLLNLVFEHYATAWKSVRPLQFEFVRSEMHTQFANVATPNEIVIVTQFSIEFGPTGGTLHICMPYSMIEPIRDVLSSPIQGEALEVDRRWVRVLSQQVQSAEVELSANLAEIPSTFEKILNLRAGDVLPLEIEDTITAKVDGVPVMECGYGIFNGQYALRVQKMISASDTMKEGGYE | not soluble |
| MGSDKIHHHHHHMGIGIIIASHGKFAEGIHQSGSMIFGEQEKVQVVTFMPNEGPDDLYGHFNNAIAQFDADDEVLVLADLWSGSPFNQASRVMGENPERKMAIITGLNLPMLIQAYTERMMDANAGVEQVAANIIKESKEGIKALPEELNPVVEATPVAGVPADVPAEVKQSGSIPEGTVIGDGKLKINLARIDTRLLHGQVATAWTPASKANRIIVASDEVSKDELRKQLIKQAAPGGVKANVVPISKLIEVAKDPRFGNTRALILFETVQDALRAIEGGVEIPELNVGSMAHSTGKTMVNNVLSMDKDDVAAFEKLRDLGVSFDVRKVPNDAKKNLFDLINKANVK | not soluble |
| MGSDKIHHHHHHMGIKYSFTRELRTELIDVDKVFKENLLPWWDDIYNYIKMLNEDFTWNQLPPLVYIVYRYLGLDRSISISMTNIFKTLYLANSIHGMVKDDKEGQKYDQDLQFAILIGDYMFGRMLKLLVEAGADKLVGLFAVMMAEINEGQVMERKLQAAHKDVLQKTRGSIYATAFETAGHLSGMKGILLENCRQLGLNLGMSIELMNCDISREEVLVYIHEAERNYKIINQYQRMVNSNLEAAINEVHSLLCNIENVAVV | not soluble |
| MGSDKIHHHHHHMGILSDKDIAYLKDLFGKELKRKVKIVFFKTEDKTRCQYCEITEQVLEELVSVDPKLELEIHDFDSDKEAVEKYQVEMVPATILLPEDGKDYGIRFYGVPSGHEFGTLIQDIITVSEGKPQLSEESIQKLQSLEEPIRISVFVTPTCPYCPRAVLMAHNMAMASDKIIGEMIEANEYWELSEKFGVSSVPHIVVNRDPSKFFVGAYPEKEFINEVLRLAKG | not soluble |
| MGSDKIHHHHHHMGIYFNPGNGSFTKDKNSQLYIDKTGLIEYLNRVICTNANCISVSHARRFGKSHAAGMIDAYYSRGCDSSELFADSEIAAKDSYSAHLNKYNVIHIDVSSFWDAYKDNVIEKIQEYIYDELKQVYGDQIDYTKMISAVLMSVYNISDIPFVIIIDEWDCVIRNGGNKTLVHSYLQFLHLLFKSEESKTFLALAYITGILPIKKIKDESALNNFREFTMLKSKQLTRYFGFTEDEVKKLCITYDMDFESIKAWYNGYLIDGLHMYNPNSVVQAMLDHDYDFYWKNTSSFESINTFITMNYAGLKDDVLAMLSGDKIRVNVNTFQNDLTTVASKDDALTALIHLGYLAYDANRKMAYIPNYEVAAAYDLALQTGSWSEVANSISKCDELLDATLNEDADKVAELVEIAHETYTSVLKYNDENSLSCALTMAYFTANAYYNIVREFPAGKGFADLVFIPRANACGRPAIVIELKYNASADSAISQIKNRRYHGALSGYSNQILLVGINYSNTSDNKKHTCIIESINNLD | not soluble |
| MGSDKIHHHHHHMGKAMDLPAETREAANNVIKMQRDADWQNDFKKNSDDGIKTQSLYNIRLIMEHDEMLKGLVAFDEFSEQIVKTPQAENSLFKKGFWNDGDDTLLRSYIEDHYNLLFSKENITDAVVTEARRKTINPVKARIEAVEWDGQPRAERYFINYLGAEDNHYTRTITKKWLTGLIARAYVPGVKFEIVPILEGSQGLGKSTAGKNLYPDKFNDSLKGMGKQKDDYQQLQGSWIIEVAELSAMKKTDIEGIKNFISAQSDTYRNSYGRYALPHPRKCVFIGTTNQTDYLKDATGERRFYPIKCGVNKAKLDVWHPDENYMLQVLAEAAYWFKNGEPLYLDQATMKEAKAYQMAAEAVDPMRDAIEAFLAMEVPTDWENMSTSLKQSYVSDYGHHSKWLQDQVSNERKLLNQTTTREIMEVVFHKTVDRYLTGRTNSEAKRIKLLMDNMDGWKSQRIRMNGQRLHGYMREV | not soluble |
| MGSDKIHHHHHHMGLAFEHVTLGQRVLFGTGTAAPSLASEVARLGARRVMVITSNRARETAYRIAADVEVALWHHDVAMHVPIETARKARAAAGEHGIDLLVCVGGGSTTGLAKAIAMTLRLPIIAVPTTYAGSEATNVWGLTEASRKTTGVDDAVLPVTVIYDAALTLALPVAMSVASGLNGIAHCIDSMWAPGADPINAALGAEGIRALSHGLPLIAEDPAGTEGREQALYGAYLSAVAFASAGSGLHHKICHVLGGAFNLPHAQVHATVLPYVLAFNAPYASDSEARIAAAFGTADALTGLQELRNRLDAPKALSDYGLTADGAAEAAAVVQPTVPASNPRPVTTENLTRLLQAALSGEDPRCLLEH | not soluble |
| MGSDKIHHHHHHMGNYLVLQSDFGLSDGAVSAMYGVAYTVSDDIRVENLTHDIPPYDIWVASYRLYQTVKYWPKGTVFVSVVDPGVGSDRRSIACLTYSGHYIITPDNGSLSHIKHYEGIKKVIEIDEVKSRLPHSEESHTFHGRDVYAYNGARLAANKIAFERLGQAINVDSIEALEIREATKNEDSVTGSIDILDIRFGSLWTNIPLAFLKSLEIVHGNNLVVTIYHQDKKVYQNIIKFARSFADVNVGEPLVYVNSLVNIGVAVNQDSFSDLYHIGTGNDWTIHLSKAPSI | not soluble |
| MGSDKIHHHHHHMGRLKTVKLVLLHTSFNLFYQFFYKVFGPKKGRITLATMRSGQLNDNLAALEQGLKTANVKPVTVFCYHYDRTLAGKVGFLLASIKALYVIARADVFVIDDYFFPLYAIHKHDDNQVVQLWHAIGSLKKFGLSLPNADQSVMKPHTNYDWVLINAKSDQPAYLDAMAINQDHVIATGSPMVDSLLNRQPQQPRLAARRILYSPTYRQGVQGKQQVMGYVNNMIAACQQLTGPWELYISLHPYLKLSAMTLPSNVHIFQDAERVKTLMPTIDLFITDYSSLSLTFSYFERPIILYTPDYDDYMQTSGFYVDYYQYLQAPHFSKAARVVDFINQEVDHMDLSYVHELKQKTFPHQDGHNTERVVQFVEKLAGGEH | not soluble |
| MGSDKIHHHHHHMGSLNMPPLDFDAQKTPHIADLRSPQCRNCDIVREIAFCADLSPDEVKRLATVRCHAALPASFTVFREGDEVDHVYSISAGAVKLYKLMPDGRRQIIGFLFSGDLFGLGIDGGYCYTAETITPTHLCRFTHRKLDSLIAEIPRLERRMFTMAVKDLVSAQDQMLLLGRKTAREKVATFLLRLSRRSIQMGLPPSPVALPMSRADIADYLGLTIETVSRTFTQLKRDGIIGLPASGHCIVNDWEALRELAEGG | not soluble |
| MGSDKIHHHHHHMGSPYIQARLSQIGDLMSFGIIQLDYEEVLAKHYRRWIQPGDTVIDVGAHLGLHLSRFIELAGPTGQVIGFEPLPFAFDILSTQHACPTLTLNNVALAHEPGHAEFTFAQGSPGESGLRKRLYISPETVTPTLIPVKVDTLDMHTENLRSVDYIKIDIEGGEIGCLEGATRTIDKFRPLISTEYGYPSYSVYGLTKDSLFNFASSKNYVLFDIFLNRIDTRDEWHIVCDSICWDYFLVPAEKLDVFTERVARRAF | not soluble |
| MGSDKIHHHHHHMGSQAIVTGASGFIGSSVARMLAHKGWTVHGIGSSHLAMEAQEQIGIKHWVQQDLTLASLQGLADKTGDPDIIIHCAGGSSVQASISNPYEDFARTANATLNVLEFMRRYSPASALVYPSSAAVYGQTSSLPIAESSTPKPFSPYGHHKRIAEILCESYSLQWQLSVSIVRLFSVYGAGLKKQLLWDACQKAEQGAYSFFGSGAEIRDWLHVEDASNLLILAAEYASPECVIINGGSGVGTSINEILKLVGSHFALVSAPTFSGKAREGDPDSYVADITKAQALGFIPSFSLSDGIRQYVEWFKKECML | not soluble |
| MGSDKIHHHHHHMHDYYQLVTVADLPQDNRQILDTLTAIGAGKLPNDLRLLNYYRSIPVNYGATVESVERGSVELTVNQQQAIVMQLEKQVFLKSGHFPKDVLAAVTYVNIDKSVAILANFAYAVIRSERRQFVRVEVKDKIEASFSGDGFTVAGLLNDISLGGVAISATIPTHPDAGIKGKVTLRLPGGPFEMPAQVLRVIPAYYTDLCIIEIQPDNRTEKGISQYIFQRQVEIIRELKDSIF | not soluble |
| MGSDKIHHHHHHMHININMDWLSAKGLPILGLDISTTAIKLVELSDAGKGMLRVERYIIEPLPKDAVSDGNIANLDQVADTLRHAWKTLGSRVKNVALALPSSAVITKKILAPASLTGIELENQVEAEANQVIPFALDEVNLDFQVLGPSPGSPDDMQILLAAARKEKVEDRVAAVEAAGLKALIMDVESYATQAAYEQIAHLLPNGGAGQTVAIIDVGAQNMHINILNDNESVYLREHGFGGNQLNNEIARRYGMSGEEAENAKRKGSLPESYELEVLQPYSETLAMEIGRALQLFTTSTQYRKIDQILLAGGGAMIPGLDEVVAQRTGTPTLVVNPFANMAVASKVRPQALTADAPSLFVACGLAMRRFDSQ | not soluble |
| MGSDKIHHHHHHMHKTRYNALSVAFQISPRGPLLIKAGGISANPTLPDMQFVRTYHPYYGYTVYIPGSSLKGVVRGFVEKALRTLDDHTSWQWACPTFPDEDESCAKKLGKEENSATIYKNSCGACRLFGHTRLKGRVAFTDLLPVDEVKTEIRYGVAISRLSHAVAHGPFEMEVAVAGTFEGYLILENFELWQLGLLVLAFQGMNSGLLQIGFGKNRGFGEVAVQVQEARLDEVTSGMEIGLWRGLADFVSDEEKTRYGLSTTFTLNGMPDPLRTEPLGLYTRRIYDPKRWDEVAQRVTDKLGTT | not soluble |
